Results from article PMC11749891 (Nature structural & molecular biology, 2022).
Each block holds one binder with its values, some of them ahead of it. * marks the point of attachment. Biotin = O=C1N[C@H]2[C@H](CS[C@H]2CCCCC(=O)*)N1; Ahx = NCCCCCC(=O)O

What was measured:
[1] = target: T1, C-terminal His tagged Sov NTD (aa 14–90) (D. melanogaster, UniProt Q9W3W6 14-90); experiment: ITC
T1 sequence (looked up): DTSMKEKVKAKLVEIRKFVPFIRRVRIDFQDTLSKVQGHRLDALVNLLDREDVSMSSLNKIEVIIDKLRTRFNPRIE

[2] = target: T2, Recombinant GFP-tagged Sov core NTD (aa 14–90), NTD Δ-SIMs (D. melanogaster, UniProt Q9W3W6 14-90); experiment: pull-down
T2 sequence (looked up): T1 sequence (looked up)

stoichiometry N [1]: 1.05 ± 0.03
Binder: KMEPKIKEDADNAMLDSLLADPFENNS (peptide, UniProt Q9W2H9 82-108, looked up) [His-SUMO tagged Panx LxxLL peptide (aa 82–108), wildtype]

binding result [2]: binds
B1: Panx LxxLL peptide (aa 82–108), wildtype, biotinylated (peptide, UniProt Q9W2H9 82-108, looked up)
peptide: {Biotin-Ahx}-KMEPKIKEDADNAMLDSLLADPFENNS-NH2
SMILES: CC[C@H](C)[C@H](NC(=O)[C@H](CCCCN)NC(=O)[C@@H]1CCCN1C(=O)[C@H](CCC(=O)O)NC(=O)[C@H](CCSC)NC(=O)[C@H](CCCCN)NC(=O)CCCCCNC(=O)CCCC[C@@H]1SC[C@@H]2NC(=O)N[C@@H]21)C(=O)N[C@@H](CCCCN)C(=O)N[C@@H](CCC(=O)O)C(=O)N[C@@H](CC(=O)O)C(=O)N[C@@H](C)C(=O)N[C@@H](CC(=O)O)C(=O)N[C@@H](CC(N)=O)C(=O)N[C@@H](C)C(=O)N[C@@H](CCSC)C(=O)N[C@@H](CC(C)C)C(=O)N[C@@H](CC(=O)O)C(=O)N[C@@H](CO)C(=O)N[C@@H](CC(C)C)C(=O)N[C@@H](CC(C)C)C(=O)N[C@@H](C)C(=O)N[C@@H](CC(=O)O)C(=O)N1CCC[C@H]1C(=O)N[C@@H](Cc1ccccc1)C(=O)N[C@@H](CCC(=O)O)C(=O)N[C@@H](CC(N)=O)C(=O)N[C@@H](CC(N)=O)C(=O)N[C@@H](CO)C(N)=O
